Test [1] deals with T1, Botulinum neurotoxin type B, subtype B3 (BoNT/B3) (Clostridium botulinum). As to the kind of experiment: flow cytometry; yeast-displayed scFv, soluble toxin. (Flow cytometry measures light scatter and fluorescence of single cells or particles in a stream.)
In test [2] the target is T2, Botulinum neurotoxin type B, subtype B4 (BoNT/B4) (Clostridium botulinum). The test is described as above.
In test [3] the target is T1, Botulinum neurotoxin type B, subtype B3 …. As to the kind of experiment: KinExA flow fluorimetry; IgG in solution. Background: A kinetic exclusion assay measures how much of one partner remains free in solution.
The target in test [4] is T2, Botulinum neurotoxin type B, subtype B4 …. As to the kind of experiment: KinExA flow fluorimetry; IgG in solution.

B1: 4B7 scFv (yeast displayed) (scFv)
chain: QVQLQQSGPGLVKPSQTLSLTCSVSGGSINSDGSYWSWVRQHPGKGLEWIGYIYYSGTTYFNPSLKSRLTMSVDTSKNQFSLKMTSVTAADTAVYYCARMSGSRSYSQYYFDSWGQGTLVTVSSGGGGSGGGGSGGGGSDIQMTQSPSSLSASVGDRVTITCRASQSISSYLNWYQQKPGTAPKLLISDASTLQSGVPSRFSGSGSGTEFTLTISNLQPEDFATYYCQQFNSYVWTFGQGTKLEIK
On to B1, for which the Kd in test [1] was determined as 25.1 nM; in test [2], 10 nM.

B2: 4B19.1 IgG (antibody, V domains shown)
VH: QVQLVQSGAEVKKPGASVNVSCKASGYTFTGYYIYWVRQAPGQGLEWMGWINPNSGVTKYAQKFQGRVTMTIDTSTNTAYMELNRLRADDTAVYYCAREWTQLWSPYDYWGQGTTVTVSS
VL: DIVLTQSPSTLSASVGDRVTISCRASRSIGWYLNWYQQRPGKAPKLLIYAASSLHNGVPSRFSGSGSGTEFTLTISSLQPDDFATYYCQQAFGFPRTFGQGTKVEIKR
Regarding B2, the Kd in test [3] worked out at 0.156 nM; in test [4], 0.194 nM.

B3: 4B6 scFv (yeast displayed) (scFv)
chain: QVQLVQSGAEVKKPGESLVISCKASGDKDTFTSFWIAWVRQMPGKGLEWMGIIYAGDSDTRYSPSFQGHVNISVDRSTNTAYLQWSSLKASDTAMYYCARHDSRYKYFYFGMDVWGQGTTVTVSSGGGGSGGGGSGGGGSDVVMTQSPSSLSASVGDRITITCQAGQDISNFLNWYQQKPGKAPKLLIRDASNLETGVPSRFSGGGSGTHFTFTISSLHPEDIATYFCQQYDNLPYTFGQGTKLEIK
Consider B3, for which the equilibrium dissociation constant (Kd) worked out at 1.08 nM in test [1] and 1.61 nM in test [2].

B4: 1B14 scFv (yeast displayed) (scFv)
chain: EVQLVESGGGLVQPGGSLRLSCAASGFTFSSYSMNWVRQAPGKGLEWVAVIWYDGSNKYYADSVKGRFTISRDNSKNTLYLQMNSLRAEDTAVYYCARSSIVGAPYGMDVWGQGTTVTVSSGGGGSGGGGSGGGGSEIVLTQSPSSLSAAVGDRVTITCRASQNIYSYLNWYQQKLGKAPNLLIYAVFSLQSGVPSRFSGSGYGTDFTLTISSLQPEDFATYYCQQSSSSPLTFGGGTKVEIK
Regarding B4, in test [2], the Kd is 2.12 nM.

The term Kd denotes the concentration at which binding is half-saturated. Higher therefore signals a looser complex.

The values are drawn from US20110200615A1 (published 2011).
